Reference: patent publication US12522842B2, “Glutamine synthetase mutant having glufosinate resistance and application thereof and cultivation method therefor” (GEVOTO LLC, priority 2019, dated 2026)

B1: OR: rice GS mutant, H296R versus SEQ ID NO. 1 (SEQ ID NO. 32) (protein)
chain: MASLTDLVNLNLSDTTEKIIAEYIWIGGSGMDLRSKARTLSGPVTDPSKLPKWNYDGSSTGQAPGEDSEVILYPQAIFKDPFRKGNNILVMCDCYTPAGEPIPTNKRHNAAKIFSSPEVASEEPWYGIEQEYTLLQKDINWPLGWPVGGFPGPQGPYYCGIGADKSFGRDIVDSHYKACLYAGINISGINGEVMPGQWEFQVGPSVGISAGDQVWVARYILERITEIAGVVVSFDPKPIPGDWNGAGAHTNYSTKSMRNDGGYEIIKSAIEKLKLRHKEHISAYGEGNERRLTGRRETADINTFSWGVANRGASVRVGRETEQNGKGYFEDRRPASNMDPYIVTSMIAETTIIWKP
modifications: OR
B2: TaGS_WT: wild-type wheat glutamine synthetase, SEQ ID NO. 2, control (protein, listed as Triticum aestivum)
chain: MALLTDLLNLDLTDSTEKIIAEYIWIGGSGMDLRSKARTLPGPVTDPSKLPKWNYDGSSTGQAPGEDSEVILYPQAIFKDPFRKGNNILVMCDCYTPAGVPIPTNKRYNAAKIFSNPDVAKEEPWYGIEQEYTLLQKDINWPLGWPVGGFPGPQGPYYCSIGADKSFGRDIVDSHYKACLFAGVNISGINGEVMPGQWEFQVGPTVGISAGDQVWVARYLLERITEIAGVVVTFDPKPIPGDWNGAGAHTNYSTESMRKDGGFKVIVDAVEKLKLKHKEHIAAYGEGNERRLTGKHETADINTFSWGVANRGASVRVGRETEQNGKGYFEDRRPASNMDPYVVTSMIAETTILWKP

Legend:
[1] = target: rice GS (glutamine synthetase); experiment: Enzymatic activity of purified rice GS: kinetic parameters and glufosinate IC50; type: biochemical, rice (Oryza sativa); conditions: inhibition of rice GS by glufosinate
Text: (§1) OsC, OsF, OsG, OsH, OsP, and OsY provided in Example 1, OR provided in Example 3, and rice GS mutant OsGR and wheat GS mutant TaGR provided in Example 2 were detected for their enzymatic kinetic parameter, and enzymatic kinetic parameter in the presence of glufosinate, using wild-type rice GS OsGS_WT and wild-type wheat GS TaGS_WT as controls according to the following method.
(§2) The nucleic acid sequences encoding the above mutants were each cloned into a prokaryotic expression vector pET32a, and the clone was verified by sequencing.
(§3) The mutant enzyme protein was purified with 6His by a standard method, and its concentration was determined with a protein concentration assay kit with Bradford method. The protein was stored in a protein storage solution.
(§4) ELIASA (Detielab, HBS-1096A), glufosinate, substrate sodium L-glutamate (CAS: 6106-04-3).
(§5) (1) The composition of a reaction solution for determination of enzymatic activity of glutamine synthetase were as follows: 100 mM Tris-HCl (pH 7.5), 10 mM ATP, 20 mM sodium L-glutamate, 30 mM hydroxylamine, 20 mM MgCl2. 100 μl of the reaction solution after mixed thoroughly was preheated at 35° C. for 5 min, and 10 μl of mutant protein solution (protein concentration of 200 μg/ml) was added to start the reaction. After reaction at 35° C. for 30 min, 110 μl of color developing solution (55 g/L FeCl3·6H2O, 20 g/L trichloroacetic acid, 2.1% concentrated hydrochloric acid) was added to terminate the reaction. The absorbance at 540 nm was measured.

[2] = system: rice (Nipponbare); experiment: Glufosinate resistance of transgenic rice after spraying 1x field dose; type: in vivo; conditions: 1x glufosinate, 450 g/ha, day 7 after spraying
Text: The glufosinate resistance resulting from the OR mutants provided in Example 3 in transgenic rice was detected according to the following method.
The nucleic acid sequence encoding OR was inserted into the pGVP1 vector (see FIG. 11) according to a conventional method to obtain the pGVP1-OR vector.
The pGVP1-OR vector was transformed into competent cells of EHA105 (Agrobacterium tumefaciens), the monoclonal was picked up for colony PCR detection, and positive strains were obtained; then the positive strains were inoculated into 1 mL YEP medium containing 50 μg·mL^−1 kanamycin and 50 μg·mL^−1 rifampicin for propagation, and stored at −80° C. or used in subsequent experiments. […]
Rice plants transformed with OR mutant gene were detected using the PCR method, forward and reverse detection primers were designed according to pGVP1-OR vector sequence and rice reference gene, the PCR amplification products were assayed by 1.5% agarose gel electrophoresis, and those with bands at 452 bp and 629 bp were transgenic plants.
The transplanted transgenic rice seedlings were evenly arranged in the same experimental area (to avoid overlapping leaves). The area of occupied regions of the experimental group and the control group was calculated. […]

[3] = system: glutamine synthetase-deficient Escherichia coli; experiment: Growth of glutamine synthetase-deficient E. coli transformed with GS mutants in M9 medium containing glufosinate; type: cell-based; conditions: for growth of transformed GS-deficient E. coli (normal GS enzymatic activity): medium containing 0 mM glufosinate
Text: According to the sequences of the nucleic acid molecules provided in Example 4, the nucleic acid sequences encoding rice GS mutants OsA, OsC, OsD, OsE, OsF, OsG, OsH, OsI, OsK, OsP, OST, OsV, and OsY were synthesized using chemical synthesis method. Restriction digestion sites (Pac1 and Sbf1) were introduced at both ends thereof, and after restriction digestion, they were linked under the action of ligase to an expression vector (such as pADV7 vector, whose structure is shown in FIG. 4) that was subjected to the same restriction digestion treatment. Then, glutamine synthetase-deficient Escherichia coli was transformed with the resultant. After verification, positive clones were picked up and inoculated in M9 medium containing different concentrations of glufosinate to grow, and the growth status of defective Escherichia coli was observed.
With wild-type rice GS (its amino acid sequence shown in SEQ ID NO. 1 and its encoding gene shown in SEQ ID NO. 4) as a negative control, the glufosinate resistance for the GS mutant OsA (S59A, wherein the amino acid S at site 59 of the rice GS is mutated into A), OsC (S59C), OsD (S59D), OsE (S59E), OsF (S59F), OsG (S59G), OsH (S59H), OsI (S591), OsK (S59K), OsP (S59P), OsT (S59T), OsV (S59V), OsY (S59Y) was detected.
With reference to the detection method of Experimental Example 1, glufosinate resistance of the rice GS mutant OsGR (S59G and H296R, the amino acid S at site 59 of rice GS is mutated into G and the amino acid H at site 296 is mutated into R), the wheat GS mutant TaGR (S59G and H296R, the amino acid S at site 59 of wheat GS is mutated into G and the amino acid H at site 296 is mutated into R), the soybean GS mutant GmGR (S59G and H296R, the amino acid S at site 59 of soybean GS is mutated into G and the amino acid H at site 296 is mutated into R) provided in Example 2 was verified.
With reference to Experimental example 1, the glufosinate resistance of rice GS mutants OA, OD, OE, OG, OI, OK, OM, OP, OQ, OR, OS, OT, and OV provided in Example 3 was detected according to the following method.
With wild-type rice GS as a negative control, the glufosinate resistance of GS mutants OA (H296A, amino acid H at site 296 of rice GS is mutated into A), OD (H296D), OE (H296E), OG (H296G), OI (H2961), OK (H296K), OM (H296M), OP (H296P), OQ (H296Q), OR (H296R), OS (H296S), OT (H296T), OV (H296V) was detected.

[4] = target: wheat GS (glutamine synthetase); experiment: Enzymatic activity of purified wheat GS: kinetic parameters and glufosinate IC50; type: biochemical, wheat (Triticum aestivum); conditions: inhibition of wheat GS by glufosinate; read-out: glufosinate resistance parameter IC50
Text: as §1, §2, §3, §4
as §5, with “After reaction at 35° C. for 30 min, 110 μl of color developing solution (55 g/L FeCl3·6H2O, 20 g/L trichloroacetic acid, 2.1% concentrated hydrochloric acid) was added to terminate the reaction.” left out

Row | Molecule | glufosinate resistance parameter IC50 [1] | performance of transgenic rice seedlings after spraying glufosinate [2] | growth of transformed GS-deficient E. coli (normal GS enzymatic activity) [3] | growth of transformed E. coli (glufosinate resistance) ([3]; medium containing 10 mM glufosinate) | growth of transformed E. coli (glufosinate resistance) ([3]; medium containing 20 mM glufosinate) | growth of transformed E. coli (glufosinate resistance) ([3]; medium containing 50 mM glufosinate) | growth of transformed E. coli (glufosinate resistance) ([3]; media containing 2 mM, 5 mM, 10 mM, and 20 mM glufosinate) | IC50 [4] [µM]
1 | B1 | much higher than those of the wild-type controls | not significantly affected by glufosinate and continued to grow | could normally grow | significantly superior to that of the wild type | significantly grew | still significantly grew |  | 
2 | B2 |  |  | could normally grow |  |  |  | could hardly grow | 600
